For this test, the target named is SARS-CoV-2 nucleocapsid protein (N protein) (SARS-CoV-2, UniProt P0DTC9 1-419).

Broadly, the Kd is the constant that tells how readily two partners part at equilibrium. Read a low Kd as a tighter complex.

B1: N-binding clone H2 Fab (Fab, V domains shown)
VH: EVQLVESGGGLVQPGGSLRLSCAASGFNVYSSSIHWVRQAPGKGLEWVASISSYYSYTSYADSVKGRFTISADTSKNTAYLQMNSLRAEDTAVYYCARSYNFSWSGYYGFDYWGQGTLVTVSS
VL: DIQMTQSPSSLSASVGDRVTITCRASQSVSSAVAWYQQKPGKAPKLLIYSASSLYSGVPSRFSGSRSGTDFTLTISSLQPEDFATYYCQQFIQFPITFGQGTKVEIKR
B1 had a Kd of 20 nM.

Values taken from patent US20230176057A1 (CHAN ZUCKERBERG BIOHUB, published 2023).
